Biological target: recombinant human Pol δ core+p68 trimer (p125/p50/p68) (human) (UniProt P28340)
Sequence (P28340 whole entry, stated change not applied, chain 1 of 3): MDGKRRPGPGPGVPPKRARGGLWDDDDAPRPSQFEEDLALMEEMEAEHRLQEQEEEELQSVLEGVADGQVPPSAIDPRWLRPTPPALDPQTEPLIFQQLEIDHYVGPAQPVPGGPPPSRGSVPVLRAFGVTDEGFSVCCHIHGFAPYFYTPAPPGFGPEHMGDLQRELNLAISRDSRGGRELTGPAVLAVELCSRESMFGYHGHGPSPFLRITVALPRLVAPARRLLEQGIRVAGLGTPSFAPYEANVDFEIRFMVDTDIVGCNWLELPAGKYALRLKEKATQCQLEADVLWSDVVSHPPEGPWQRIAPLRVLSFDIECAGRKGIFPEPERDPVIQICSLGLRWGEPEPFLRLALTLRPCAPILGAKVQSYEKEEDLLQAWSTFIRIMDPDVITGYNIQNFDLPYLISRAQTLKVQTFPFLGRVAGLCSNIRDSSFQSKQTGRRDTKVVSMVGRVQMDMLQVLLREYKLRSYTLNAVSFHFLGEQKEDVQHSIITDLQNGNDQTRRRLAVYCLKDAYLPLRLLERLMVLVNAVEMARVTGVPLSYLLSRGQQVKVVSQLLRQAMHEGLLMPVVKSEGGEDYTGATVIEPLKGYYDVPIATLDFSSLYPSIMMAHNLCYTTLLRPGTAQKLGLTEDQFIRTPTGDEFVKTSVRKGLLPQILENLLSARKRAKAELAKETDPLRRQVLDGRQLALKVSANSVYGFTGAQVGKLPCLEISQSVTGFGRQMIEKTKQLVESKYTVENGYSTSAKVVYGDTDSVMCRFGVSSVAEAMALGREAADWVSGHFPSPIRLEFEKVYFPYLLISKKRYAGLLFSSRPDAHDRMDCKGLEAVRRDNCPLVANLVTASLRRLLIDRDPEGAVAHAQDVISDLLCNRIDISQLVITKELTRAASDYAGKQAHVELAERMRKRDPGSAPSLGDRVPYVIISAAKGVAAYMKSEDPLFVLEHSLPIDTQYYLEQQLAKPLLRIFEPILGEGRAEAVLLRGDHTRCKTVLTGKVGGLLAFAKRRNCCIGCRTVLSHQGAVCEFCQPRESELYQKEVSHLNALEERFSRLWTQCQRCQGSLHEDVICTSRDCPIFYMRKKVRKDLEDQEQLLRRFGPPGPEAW
Sequence (P49005 whole entry, stated change not applied, chain 2 of 3, further chain): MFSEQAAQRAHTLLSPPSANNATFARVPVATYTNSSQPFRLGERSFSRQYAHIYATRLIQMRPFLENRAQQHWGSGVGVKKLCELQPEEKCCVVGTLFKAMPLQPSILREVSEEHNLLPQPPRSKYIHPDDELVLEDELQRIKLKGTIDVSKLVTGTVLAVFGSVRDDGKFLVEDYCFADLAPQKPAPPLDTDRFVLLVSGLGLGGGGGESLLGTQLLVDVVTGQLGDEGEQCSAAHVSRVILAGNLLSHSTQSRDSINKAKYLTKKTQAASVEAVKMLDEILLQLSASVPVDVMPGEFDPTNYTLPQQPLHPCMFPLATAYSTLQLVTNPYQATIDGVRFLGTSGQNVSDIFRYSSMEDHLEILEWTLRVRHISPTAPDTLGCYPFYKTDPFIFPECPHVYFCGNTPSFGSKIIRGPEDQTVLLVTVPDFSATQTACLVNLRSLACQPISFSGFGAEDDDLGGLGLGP
Sequence (Q15054 whole entry, stated change not applied, chain 3 of 3, further chain): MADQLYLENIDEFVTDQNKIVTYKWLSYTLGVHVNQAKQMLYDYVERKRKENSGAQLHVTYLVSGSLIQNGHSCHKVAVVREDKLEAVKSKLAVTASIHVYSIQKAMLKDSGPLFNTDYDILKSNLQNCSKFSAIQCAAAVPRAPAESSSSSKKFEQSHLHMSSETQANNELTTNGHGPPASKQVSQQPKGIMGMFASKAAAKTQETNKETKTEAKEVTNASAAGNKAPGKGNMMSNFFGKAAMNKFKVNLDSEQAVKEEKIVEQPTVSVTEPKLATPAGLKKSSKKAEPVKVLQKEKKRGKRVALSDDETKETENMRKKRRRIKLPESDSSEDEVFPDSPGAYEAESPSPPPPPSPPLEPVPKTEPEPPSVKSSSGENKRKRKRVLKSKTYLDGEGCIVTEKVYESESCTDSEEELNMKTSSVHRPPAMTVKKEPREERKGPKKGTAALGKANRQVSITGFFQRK

B1: non-tagged recombinant p12 (natural protein)
chain: MGRKRLITDSYPVVKRREGPAGHSKGELAPELGEEPQPRDEEEAELELLRQFDLAWQYGPCTGITRLQRWCRAKQMGLEPPPEVWQVLKTHPGDPRFQCSLWHLYPL
B1 was tested, and the restoration of Pol δ activity on poly(dA)/oligo(dT) with PCNA, core+p68 (200 fmoles) pre-incubated with 0-400 ng p12 at 4°C for 30 min, against Pol δ4 was 80% and the restoration of Pol δ activity on singly primed M13 DNA, core+p68 (50 fmoles) pre-incubated with 0-400 ng p12, against Pol δ4 was 96%.
